This passage reports IC50 results from patent US20200157212A1.

By IC50 is commonly meant the concentration that inhibits the measured activity by half.

For this experiment, the target named is Terbium (Tb) labeled-SNAP tagged ROBO2 expressed on HEK293 cells (Homo sapiens (Human)) (UniProt Q9HCK4). Description: HTRF competition, competitor d2-SLIT2-N, ROBO2 HEK293 cells. (In general: Time-resolved FRET reads energy transfer from a long-lived donor to a nearby acceptor.)
Terbium (Tb) labeled-SNAP tagged ROBO2 expressed on HEK293 cells (Homo sapiens (Human)), sequence (Q9HCK4 22-1378): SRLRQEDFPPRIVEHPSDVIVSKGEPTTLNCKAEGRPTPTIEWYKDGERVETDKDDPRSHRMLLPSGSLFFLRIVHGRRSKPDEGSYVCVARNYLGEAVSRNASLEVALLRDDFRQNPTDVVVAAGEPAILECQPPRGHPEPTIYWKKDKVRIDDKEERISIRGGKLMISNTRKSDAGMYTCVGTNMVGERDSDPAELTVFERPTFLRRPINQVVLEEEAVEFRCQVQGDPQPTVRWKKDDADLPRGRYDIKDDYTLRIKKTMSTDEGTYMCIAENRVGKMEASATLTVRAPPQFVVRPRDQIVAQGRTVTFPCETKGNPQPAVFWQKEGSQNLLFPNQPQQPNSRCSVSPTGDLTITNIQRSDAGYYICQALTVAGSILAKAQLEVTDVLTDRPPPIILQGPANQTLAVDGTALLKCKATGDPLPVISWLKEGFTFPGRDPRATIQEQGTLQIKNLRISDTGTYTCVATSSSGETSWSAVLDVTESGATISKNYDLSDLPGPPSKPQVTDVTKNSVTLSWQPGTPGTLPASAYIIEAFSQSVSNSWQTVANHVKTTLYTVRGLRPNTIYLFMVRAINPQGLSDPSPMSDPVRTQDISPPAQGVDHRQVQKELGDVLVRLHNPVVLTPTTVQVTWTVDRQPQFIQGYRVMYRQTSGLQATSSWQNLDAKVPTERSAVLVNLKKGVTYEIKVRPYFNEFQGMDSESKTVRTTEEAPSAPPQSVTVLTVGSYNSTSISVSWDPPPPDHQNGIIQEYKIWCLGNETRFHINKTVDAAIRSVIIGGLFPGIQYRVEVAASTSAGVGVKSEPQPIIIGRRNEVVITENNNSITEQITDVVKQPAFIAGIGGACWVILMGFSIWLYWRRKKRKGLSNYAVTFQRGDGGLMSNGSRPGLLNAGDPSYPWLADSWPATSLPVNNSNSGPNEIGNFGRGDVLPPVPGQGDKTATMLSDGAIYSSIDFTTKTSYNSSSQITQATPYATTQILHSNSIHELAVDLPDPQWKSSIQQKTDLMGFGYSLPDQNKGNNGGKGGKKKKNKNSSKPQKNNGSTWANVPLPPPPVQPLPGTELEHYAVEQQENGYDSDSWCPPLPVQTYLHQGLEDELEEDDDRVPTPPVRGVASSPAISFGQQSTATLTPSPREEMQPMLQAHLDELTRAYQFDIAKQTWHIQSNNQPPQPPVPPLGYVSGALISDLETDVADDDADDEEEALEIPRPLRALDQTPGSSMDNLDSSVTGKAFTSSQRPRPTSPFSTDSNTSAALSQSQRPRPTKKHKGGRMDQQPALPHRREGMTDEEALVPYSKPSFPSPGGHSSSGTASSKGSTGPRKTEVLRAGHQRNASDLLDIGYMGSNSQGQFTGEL

For the substance Control Ab (antibody), the IC50 came to 125 nM. In other words, the sub-micromolar range.
